The source of these data is the supplement of paper PMC7877785.

± gives the uncertainty stated by the source.

A short description of this data set: self-splicing fitness, log relative to wild type (ln ratio); higher = more splicing; Tetrahymena group I intron in knt gene, E. coli kanamycin selection, DiMSum; sequences stand for … in CUCUCU…GGAGGGAAAAGUUAUCAGGCAUGCACCUGGUAGCUAGUCUUUAAACCAAUAGAUUGCAUCGGUUUAAAAGGCAAGACCGUCAAAUUGCGGGAAAGGGGUCAACAGCCGUUCAGUACCAAGUCUCAGGGGAAACUUUGAGAUGGCCUUGCAAAGGGUAUGGUAAUAAGCUGACGGACAUGGUCCUAACCACGCAGCCAAGUCCUAAGUCAACAGAUCUUCUGUUGAUAUGGAUGCAGUUCACAGACUAAAUGUCGGUCGGGGAAGAUGUAUUCUUCUCAUAAGAUAUAGUCGGACCUCUCCUUAAUGGGAGCUAGCGGAUGAAGUGAUGCAACACUGGAGCCGCUGGGAACUAAUUUGUAUGCGAAAGUAUAUUGAUUAGUUUUGGAGUACUCGUGGUCG
Put shortly:
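The eight P1ex-region nucleotides of an intron in the knt kanamycin-resistance gene on pET-22b(+) were all randomised and the library put into E. coli BL21(DE3). Six replicate transformations were grown overnight at 37°C or 30°C on LB agar with or without 25 μg/mL kanamycin, together with 100 μg/mL carbenicillin, 50 μM IPTG and 0.2% rhamnose. Colonies were pooled and amplicon-sequenced on an Illumina HiSeq 2500. Fitness from DiMSum is the error-weighted combination of wild-type-normalised replicate fold changes, kanamycin over none.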

As for AGUGAGCAAUAUUACGAAGU, the “self-splicing fitness (ln)” value runs as follows: (30 °C) -2.49 ± 0.26; (37 °C) 0.907 ± 0.22.

Take AUGGAGCAAUAUUACGUGUC: the “self-splicing fitness (ln)” value (30 °C) is -4.57 ± 0.46 and the “self-splicing fitness (ln)” value (37 °C) was -2.71 ± 0.28.

Take CUUUAGCAAUAUUACGUGAU: the “self-splicing fitness (ln)” value is -2.8 ± 0.14 (30 °C) and -1.05 ± 0.15 (37 °C).

Turning to GUCCAGCAAUAUUACGUUAU, the “self-splicing fitness (ln)” value by setting is: (30 °C) -0.827 ± 0.058; (37 °C) 0.329 ± 0.07.

Take CCGGAGCAAUAUUACGGACC: the “self-splicing fitness (ln)” value is, setting by setting: (30 °C) -2.12 ± 0.4; (37 °C) -1.64 ± 0.45.

Regarding GUCCAGCAAUAUUACGGGUC, the “self-splicing fitness (ln)” value is, setting by setting: (30 °C) -1.73 ± 0.13; (37 °C) -1.7 ± 0.16.

On to CAACAGCAAUAUUACGACUA, for which the “self-splicing fitness (ln)” value reads like this: (30 °C) -1.35 ± 0.1; (37 °C) -0.653 ± 0.092.

Turning to UUGCAGCAAUAUUACGGUGA, the “self-splicing fitness (ln)” value by setting is: (30 °C) -1.44 ± 0.14; (37 °C) 0.0799 ± 0.14.

Turning to GGGUAGCAAUAUUACGGGUA, the “self-splicing fitness (ln)” value is -1.55 ± 0.28 (30 °C) and -1.1 ± 0.21 (37 °C).

On to CAAGAGCAAUAUUACGUGGA, for which the “self-splicing fitness (ln)” value was -3.87 ± 0.28 (30 °C) and -2.43 ± 0.15 (37 °C).

Regarding AGGAAGCAAUAUUACGCGGA, the “self-splicing fitness (ln)” value runs as follows: (30 °C) -2.32 ± 0.22; (37 °C) -1.29 ± 0.17.

Take GGCUAGCAAUAUUACGGCCG: the “self-splicing fitness (ln)” value was -1.45 ± 0.23 (30 °C) and -0.656 ± 0.22 (37 °C).

Take AUGUAGCAAUAUUACGUAUU: the “self-splicing fitness (ln)” value is -3.48 ± 0.21 (30 °C) and -1.44 ± 0.16 (37 °C).

With CCGGAGCAAUAUUACGAACA, the “self-splicing fitness (ln)” value was -2.82 ± 0.41 (30 °C) and -2.9 ± 0.32 (37 °C).

On to ACACAGCAAUAUUACGACGG, for which the “self-splicing fitness (ln)” value (30 °C) was -0.479 ± 0.073 and the “self-splicing fitness (ln)” value (37 °C) is -0.0997 ± 0.11.

As to CGCUAGCAAUAUUACGUCCC, the “self-splicing fitness (ln)” value (30 °C) was -2.63 ± 0.16 and the “self-splicing fitness (ln)” value (37 °C) was -1.54 ± 0.19.

Turning to GCGCAGCAAUAUUACGGAAA, the “self-splicing fitness (ln)” value is, setting by setting: (30 °C) -1.97 ± 0.23; (37 °C) -0.698 ± 0.2.

For CCGAAGCAAUAUUACGUUAG, the “self-splicing fitness (ln)” value reads like this: (30 °C) -1.97 ± 0.093; (37 °C) -0.908 ± 0.082.

Take AAACAGCAAUAUUACGACAG: the “self-splicing fitness (ln)” value is -1.5 ± 0.082 (30 °C) and -1.25 ± 0.1 (37 °C).

As for GGUUAGCAAUAUUACGUAUC, the “self-splicing fitness (ln)” value was -0.749 ± 0.12 (30 °C) and 0.0936 ± 0.15 (37 °C).

For AUUCAGCAAUAUUACGAAUA, the “self-splicing fitness (ln)” value is, setting by setting: (30 °C) -2.49 ± 0.23; (37 °C) -1.08 ± 0.17.

Regarding GUAAAGCAAUAUUACGUCUC, the “self-splicing fitness (ln)” value is, setting by setting: (30 °C) 0.704 ± 0.098; (37 °C) 0.129 ± 0.11.

Consider AAGCAGCAAUAUUACGUAAA, for which the “self-splicing fitness (ln)” value reads like this: (30 °C) -1.84 ± 0.087; (37 °C) -0.803 ± 0.11.

Consider UACAAGCAAUAUUACGCUCG, for which the “self-splicing fitness (ln)” value is, setting by setting: (30 °C) -1.26 ± 0.088; (37 °C) 0.16 ± 0.11.

For AAAUAGCAAUAUUACGUGGC, the “self-splicing fitness (ln)” value (30 °C) was -4.1 ± 0.28 and the “self-splicing fitness (ln)” value (37 °C) is -1.43 ± 0.2.

With GUUCAGCAAUAUUACGGGAA, the “self-splicing fitness (ln)” value (30 °C) is -1.16 ± 0.14 and the “self-splicing fitness (ln)” value (37 °C) was -0.278 ± 0.13.

As for CCGGAGCAAUAUUACGAGAG, the “self-splicing fitness (ln)” value is, setting by setting: (30 °C) -2.13 ± 0.22; (37 °C) -2.33 ± 0.22.

For the sequence AGCGAGCAAUAUUACGCGCU, the “self-splicing fitness (ln)” value (30 °C) is -1.6 ± 0.23.

For CGCCAGCAAUAUUACGAAUU, the “self-splicing fitness (ln)” value was -4.49 ± 0.27 (30 °C) and -1.46 ± 0.17 (37 °C).

As for CCGCAGCAAUAUUACGACGC, the “self-splicing fitness (ln)” value (30 °C) was -3.71 ± 0.35 and the “self-splicing fitness (ln)” value (37 °C) is -2.74 ± 0.27.

In the case of UCGCAGCAAUAUUACGAUCC, the “self-splicing fitness (ln)” value (37 °C) was -1.68 ± 0.36.

Take CGUUAGCAAUAUUACGCGAG: where the note is “30 °C”, the “self-splicing fitness (ln)” value is -2.42 ± 0.29.

As for GGCAAGCAAUAUUACGAGCA, the “self-splicing fitness (ln)” value runs as follows: (30 °C) -0.434 ± 0.13; (37 °C) -0.381 ± 0.14.

CAAUAGCAAUAUUACGGUCC: the “self-splicing fitness (ln)” value by setting is: (30 °C) -3.21 ± 0.38; (37 °C) -2.34 ± 0.39.

Turning to AGCCAGCAAUAUUACGCGGG, the “self-splicing fitness (ln)” value is, setting by setting: (30 °C) -3.29 ± 0.19; (37 °C) -2.91 ± 0.28.

On to CCGAAGCAAUAUUACGUUAC, for which the “self-splicing fitness (ln)” value reads like this: (30 °C) -3.03 ± 0.16; (37 °C) -2.43 ± 0.26.

With GACCAGCAAUAUUACGAUAU, the “self-splicing fitness (ln)” value reads like this: (30 °C) -0.781 ± 0.072; (37 °C) -0.235 ± 0.086.

Consider UCUCAGCAAUAUUACGCCUU, for which the “self-splicing fitness (ln)” value reads like this: (30 °C) -3.77 ± 0.33; (37 °C) -2.15 ± 0.21.
